Common to all, as to test: SPR
Common to all, as to conditions: both partners purified

Test [1] addresses T1, factor H binding protein (fHbp) variant 1.1, recombinant (Neisseria meningitidis MC58, fHbp v1.1).
T1 construct: also called fHbp v1.1; fHbp v1; source: E. coli BL21(DE3), purified (Ni-NTA, SEC when necessary); not shown: His6, C-terminal, kept
T1 chain: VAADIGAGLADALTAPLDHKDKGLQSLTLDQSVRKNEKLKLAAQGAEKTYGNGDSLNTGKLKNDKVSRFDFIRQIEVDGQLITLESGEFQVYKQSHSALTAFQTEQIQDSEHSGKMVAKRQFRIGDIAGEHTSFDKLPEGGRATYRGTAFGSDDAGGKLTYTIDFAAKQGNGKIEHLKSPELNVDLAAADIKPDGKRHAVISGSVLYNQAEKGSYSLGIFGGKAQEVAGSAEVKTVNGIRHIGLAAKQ

Test [2] concerns the target T2, factor H binding protein (fHbp) variant 3.28, recombinant (Neisseria meningitidis M1239, fHbp v3.28, UniProt Q19KF7, strain).
T2 construct: also called fHbp v3.28; fHbp v3; source: E. coli BL21(DE3), purified (Ni-NTA, SEC when necessary)

Test [3] has as its target T3, factor H binding protein (fHbp) variant 1.1 (Neisseria meningitidis MC58, fHbp v1.1, strain).
T3 construct: also called fHbp v1.1; fHbp v1; source: E. coli BL21(DE3), purified (Ni-NTA; SEC when necessary)
T3 chain: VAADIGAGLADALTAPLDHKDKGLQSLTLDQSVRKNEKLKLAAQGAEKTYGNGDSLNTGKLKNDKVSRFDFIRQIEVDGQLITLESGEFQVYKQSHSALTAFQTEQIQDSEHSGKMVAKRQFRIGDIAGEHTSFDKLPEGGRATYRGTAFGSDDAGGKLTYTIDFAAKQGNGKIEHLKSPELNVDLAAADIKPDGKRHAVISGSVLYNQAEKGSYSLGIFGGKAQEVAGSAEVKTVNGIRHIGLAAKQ

For test [4], the target named is T4, factor H binding protein (fHbp) variant 3.28 (Neisseria meningitidis M1239, fHbp v3.28, UniProt Q19KF7, strain).
T4 construct: also called fHbp v3.28; fHbp v3; source: E. coli BL21(DE3), purified (Ni-NTA; SEC when necessary)

In test [5] the target is T5, factor H binding protein (fHbp) variant 2.16 (Neisseria meningitidis 961-5945, UniProt Q6VS19, strain).
T5 construct: also called fHbp v2.16; fHbp v2; source: E. coli BL21(DE3), purified (Ni-NTA; SEC when necessary)

B1: human anti-fHbp mAb 4B10 (antibody, V domains shown)
VH: EVQLVESGGGLVKPGGSLRLSCAASGFAFSTYSLHWVRQAPGKGLEWVSAITSSGSFLYYADSLKGRFTVSRDNAKNSLFLQMNSLRAGDTAVYYCARALQVEDGFPMFSGLDVWGQGTTVTVSS
VL: QTVVTQPPSVSEAPRQRVAISCSGSSSNIGDNSVSWYQQLPGKAPKLLIYDDDLLPSGVSDRFSASKSGTSASLAISGLQSEDEAEYYCAAWDDSLKGVVFGGGTKLTVL
notes: IgG1; source: Expi293, transient transfection, purified (protein G Sepharose)
As a reminder, the Kd is the free concentration of one partner at which half of the binding sites on the other are occupied at equilibrium, for simple one-to-one binding. For B1, the Kd in test [1] was found to be 0.296 nM; in test [2], 1.67 nM.

B2: human anti-fHbp mAb 4B10 (antibody, V domains shown)
VH: EVQLVESGGGLVKPGGSLRLSCAASGFAFSTYSLHWVRQAPGKGLEWVSAITSSGSFLYYADSLKGRFTVSRDNAKNSLFLQMNSLRAGDTAVYYCARALQVEDGFPMFSGLDVWGQGTTVTVSS
VL: QTVVTQPPSVSEAPRQRVAISCSGSSSNIGDNSVSWYQQLPGKAPKLLIYDDDLLPSGVSDRFSASKSGTSASLAISGLQSEDEAEYYCAAWDDSLKGVVFGGGTKLTVL
notes: source: Expi293, transient transfection, purified (protein G Sepharose)
The term koff denotes the rate constant with which the complex falls apart. Low values mean slow dissociation, high ones fast dissociation. The kon is the second-order rate constant of association. High values mean fast association, low ones slow association. B2: the koff in test [3] is 0.0025 s⁻¹; in test [4], 0.000473 s⁻¹; in test [5], 0.000706 s⁻¹. Also, the association rate constant (kon) is 7.7e+06 M⁻¹ s⁻¹ in test [3], 284000 M⁻¹ s⁻¹ in test [4] and 1.57e+07 M⁻¹ s⁻¹ in test [5]. Besides, the Kd in test [5] came to 0.0451 nM.

B3: human anti-fHbp mAb 2C8 (antibody, V domains shown)
VH: QVQLVQSGAEVKKPGSSVKVSCKASGGTVINYPISWVRQVPGQGLEWMGRLVPLFGTPNYGQKFQGRITITADKSTSAAYMELIGLKSEDTAVYYCARGDTAMAPFDYWGHGTLVTVSS
VL: QLVLTQPPSVSVAPGKTATITCGGNNVGGKTVHWYQQKPGQAPVLVMSYDSDRPSGIPERFSGSNSGNTATLTISRVEAEDEADYYCQVWHGNDDHWVFGGGTKLTVL
notes: as for B2
Turning to B3, the off-rate (koff) was determined as 0.000388 s⁻¹ in test [3], 0.0002 s⁻¹ in test [4] and 0.000689 s⁻¹ in test [5]. Further, the figures for the kon in test [3], in test [4] and in test [5] were 1.16e+06 M⁻¹ s⁻¹, 430000 M⁻¹ s⁻¹ and 1.31e+07 M⁻¹ s⁻¹, respectively.

B4: human anti-fHbp mAb 4F9 (antibody, V domains shown)
VH: QVQLVQSGGGLVKPGGSLRLSCAASGFPFSSYYMSWIRQAPGKGLEWVSDINNSGNVKEYADFVKGRLTISRDNVKNSMYLHMNSLRVEDTAVYYCARNRGRFDVWGQGTLVTVSA
VL: EIVMTQSPGTLSLSPGETATLSCRASQMISSPFLAWYQQRRGQAPRLLIYGASTRATDTPDRFRGSGSGTDFILTISRLEPEDFAVYYCQHYDDSPFTFGQGTKLEIK
notes: as for B2
As to B4, the koff in test [3] was determined as 0.00251 s⁻¹; in test [4], 0.00095 s⁻¹; in test [5] it was 3.3e-05 s⁻¹. In addition, the kon in test [3] worked out at 3.29e+07 M⁻¹ s⁻¹; in test [4] it was 380000 M⁻¹ s⁻¹; in test [5], 1.16e+06 M⁻¹ s⁻¹.

B5: human anti-fHbp mAb 3G7 (antibody, V domains shown)
VH: EVQLLQSGGGLVKPGGSLRLSCAASGFPFSSYYMSWIRQAPGKGLEWVSDINNSGNVKEYADFVKGRLTISRDNVKNSMYLHMNSLRVEDTAVYYCARNRGRFDVWGQGTLVTVSA
VL: EIVLTQSPGTLSLSPGETATLSCRASQMISSPFLAWYQQRRGQAPRLLIYGASTRATDTPDRFRGSGSGTDFILTISRLEPEDFAVYYCQYYDDSPFTFGQGTKLEIK
notes: as for B2
Take B5: the koff in test [3] amounted to 0.000311 s⁻¹; in test [4], 0.000176 s⁻¹; in test [5] it was 3.89e-05 s⁻¹. Also, the kon in test [3] came out at 903000 M⁻¹ s⁻¹; in test [4], 258000 ± 0.01 M⁻¹ s⁻¹; in test [5] it was 741000 M⁻¹ s⁻¹.

B6: human anti-fHbp mAb 4B3 (antibody, V domains shown)
VH: QVQLVQSGGGLVKPGGSLRLSCAASGFPFSSYYMSWIRQAPGKGLEWVSDINNSGNVKEYADFVKGRLTISRDNVKNSMYLHMNSLRVEDTAVYYCARNRGRFDVWGQGTLVTVSA
VL: EIVMTQSPGTLSLSPGETATLSCRASQMISSPFLAWYQQRRGQAPRLLIYGASTRATDTPDRFRGSGSGTDFILTISRLEPEDFAVYYCQYYDDSPFTFGQGTKLEIK
notes: as for B2
As for B6, the koff in test [3] stood at 0.000217 s⁻¹; in test [4], 0.0002 s⁻¹; in test [5], 7.98e-05 s⁻¹. Moreover, the kon was found to be 661000 M⁻¹ s⁻¹ in test [3], 315000 M⁻¹ s⁻¹ in test [4] and 2.73e+06 M⁻¹ s⁻¹ in test [5].

B7: human anti-fHbp mAb 5C6 (antibody, V domains shown)
VH: EVQLLESGGGLVQPGGSLRLSCAASGFTFSSYAMSWVRQTPGKGLEWVSAISGSGGSTYYADSVQGRFTISRDNSKNTLYLQINSLRAEDTAVYYCAKDPGFVLSSGWYYFDYWGQGTLVTVSS
VL: not shown
notes: as for B2
With B7, the results for the koff in test [3], in test [4] and in test [5] were 0.000454 s⁻¹, 0.00071 s⁻¹ and 0.000345 s⁻¹, respectively. For the same molecule, the kon in test [3] is 420000 M⁻¹ s⁻¹; in test [4], 350000 M⁻¹ s⁻¹; in test [5], 204000 M⁻¹ s⁻¹.

B8: human anti-fHbp mAb 3B7 (antibody, V domains shown)
VH: EVQLVQSGAEVKKPGSSVKVSCKASGDTFSNYPISWVRQAPGQGLEWMGGIIPIFGTANYAQKFQGRVTITADESTSTPYMELSSLRSEDTAVYYCARGDTAMAPFDYWGQGTLVTVSS
VL: SYVLTQPPSVSVAPGKTARITCGGNSIGSKSVHWYQQKPGQAPVLVIYYDSDRPSGVPERISGSNSGNTATLTISRVEAGDEADYYCQVWDSSSDSWVFGGGTKLTVL
notes: as for B2
Consider B8, for which the koff in test [3] worked out at 0.00442 s⁻¹; in test [4] it was 0.00083 s⁻¹; in test [5], 7.13e-06 s⁻¹. Moreover, the kon in test [3] was determined as 1.71e+06 M⁻¹ s⁻¹; in test [4], 382000 M⁻¹ s⁻¹; in test [5] it was 1.32e+06 M⁻¹ s⁻¹.

B9: human anti-fHbp mAb 5F12 (antibody, V domains shown)
VH: EVQLVESGGDLVKPGGSLRLSCAASGFTFSNYTMNWVRQAPGKGLEWVSSITSSSSFKYYADSVKGRFTISRDNAKNSVFLQMNSLRAEDTAIYYCARRIDSSDQDWFYYYGMDVWGLGTTVTVSS
VL: QSVLTQPPSVSAAPGQRVTISCSGSSSNIGDNYISWYQQLPGTAPKLLIYDNDQRPSGTPDRFSASKSGTSATLGVTGLQTGDEADYYCGTWDSSLNAPVFGSGTKVTVL
notes: as for B2
With B9, the koff in test [3] stood at 0.000846 s⁻¹; in test [4] it was 0.00613 s⁻¹; in test [5], 0.00188 s⁻¹. The figures for the kon in test [3], in test [4] and in test [5] were 854000 M⁻¹ s⁻¹, 350000 M⁻¹ s⁻¹ and 690000 M⁻¹ s⁻¹, respectively.

B10: human anti-fHbp mAb 1E10 (antibody, V domains shown)
VH: QVQLVESGGDLVKPGGSLRLSCVASGFTFSSYTMNWVRQAPGKGLEWVSSITSSSSFTYYADSVKGRFIISRDNAKNSLSLQMNNLRVEDTATYYCARRKDSSDYDWYYYYGMDVWGLGTTVTVSS
VL: QSVVTQPPSVSAAPGQKVTISCSGSSSNIGDNYMSWYQQIPGTAPKLLIFDNDQRPSGIPDRFSASKSGTSATLDITGFQTGDEADYYCGTWDSGLSAPVFGGGTKLTVL
notes: as for B2
B10: the koff turned out to be 0.000657 s⁻¹ in test [3], 0.000495 s⁻¹ in test [4] and 0.00079 s⁻¹ in test [5]. Also, the kon worked out at 427000 M⁻¹ s⁻¹ in test [3], 390000 M⁻¹ s⁻¹ in test [4] and 630000 M⁻¹ s⁻¹ in test [5].

B11: human anti-fHbp mAb 2G1 (antibody, V domains shown)
VH: QVQLVESGGDLVKPGGSLRLSCVASGFTFSSYTMNWVRQAPGKGLEWVSSITSSSSFTYYADSVKGRFIISRDNAKNSLSLQMNNLRVEDTATYYCARRKDSSDYDWYYYYGMDVWGLGTTVTVSS
VL: QSVLTQPPSVSAAPGQKVTISCSGSSSNIGDNYMSWYQQIPGTAPKLLIFDNDQRPSGIPDRFSASKSGTSATLDITGFQTGDEADYYCGTWDSGLSAPVFGGGTKLTVL
notes: as for B2
Regarding B11, in test [4], the koff is 0.000584 s⁻¹ and the kon came to 332000 M⁻¹ s⁻¹. Further, in test [5], the koff is 0.00045 s⁻¹ and the kon amounted to 270000 M⁻¹ s⁻¹.

B12: human anti-fHbp mAb 1D1 (antibody, V domains shown)
VH: QVQLVGSGGGLVKPGGSLRLSCAASGFTFSSYTMNWVRQAPGKGLEWVSSISSSSGYIYYADSLKGRFTISRDDAKNSLFLQMNSLRAEDTAVYFCARDKVLPAPPGFYGLDVWGPGTTVTVSS
VL: QSVVTQPPSVSAAPGQKVTISCSGSSSNIEDNFVSWYQQLPGTAPKLLIYDNNQRPSGIPDRFSGSKSGTSATLGITGLQTGDEADYYCATWDNSLSARVFGGGTKLTVL
notes: as for B2
As to B12, the koff in test [3] stood at 0.00154 s⁻¹; in test [4], 0.000642 s⁻¹; in test [5], 0.00264 s⁻¹. The kon was 1.81e+06 M⁻¹ s⁻¹ in test [3], 371000 M⁻¹ s⁻¹ in test [4] and 450000 M⁻¹ s⁻¹ in test [5].

B13: human anti-fHbp mAb 3F1 (antibody, V domains shown)
VH: EVHLVESGGGLVKPGGSLRLSCAASGFTFSSYTMNWVRQAPGKGLEWVSSISSSSGYIYYADSLKGRFTISRDNAKNSLFLQMNSLRAEDTAVYFCARDKVLPAPPGFYGLDVWGPGTTVTVSS
VL: QSVVTQPPSVSAAPGQKVTISCSGSSSNIEDNFVSWYQQLPGTAPKLLIYDNNQRPSGIPDRFSGSKSGTSATLGITGLQTGDEADYYCATWDNSLSARVFGGGTKLTVL
notes: as for B2
B13: the koff in test [3] was determined as 0.000917 s⁻¹; in test [4], 0.00063 s⁻¹; in test [5], 0.00478 s⁻¹. Also, the kon in test [3] amounted to 885000 M⁻¹ s⁻¹; in test [4], 340000 M⁻¹ s⁻¹; in test [5], 382000 M⁻¹ s⁻¹.

(Values after paper PMC7556464, “4CMenB vaccine induces elite cross-protective human antibodies that compete with human factor H for binding to meningococcal fHbp” (PLoS Pathogens, 2020).)
